Source: the supplement of paper PMC9170038

System: MS2 coat protein
Assay: apparent KD of MS2 coat protein; designed switch direction (-1 OFF switch, 1 ON switch): -1; higher = weaker reporter binding
Summary of the method: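 The reported apparent KD is a per-design median over clusters, from curve fits of normalised cluster fluorescence. Protein titrations used SNAP-549-labelled MS2 coat protein, doubled from 0.7 or 1.5 nM to 3 µM, in Tris-HCl pH 7.5 buffer with KCl, MgCl2, BSA, DTT, tRNA and Tween-20, with no input, 200 uM small-molecule ligand, or an oligonucleotide input. The RNA switches were transcribed on Illumina chips by stalled E. coli RNA polymerase.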

[1] = input ligand: microRNA oligo, concentration not stated
[2] = Eterna round: R95, input ligand: microRNA oligo, concentration not stated

| Sequence | apparent KD of MS2 coat protein (input ligand: FMN 200 uM) [nM] | apparent KD of MS2 coat protein (input ligand: none) [nM] | apparent KD of MS2 coat protein [1] [nM] | apparent KD of MS2 coat protein [2] [nM] |
| --- | --- | --- | --- | --- |
| AAGUAGACAGUGAGGAUAUAGGUGGAAUGACCCAUUUAGAAGGUACAUGAGGAUCACCCAUGUGGGUAAUGUCG [Brourd's EX4 #27] (Eterna round: R97, puzzle: Brourd's mod of Exclusion 4) | 146 | 149 |  |  |
| CAGUACUGAGGAUAUACAUGAGGAUCACCCAUGUGUUCCAGCUAGGAAACUAGCAAAGGUAGAAGGCAGUACUG [salish99_ex3_r3_065] (Eterna round: R96, puzzle: Exclusion 3) |  |  | 23.2 |  |
| AGUGCGUAUGUGAGGAUAUGCUGGUCCUUGGAUCAGCAGAAGGCACAUGAGGAUCACCCAUGUGGUGUCGUACU [salish99_Bmod_Ex4_005] (puzzle: Brourd's mod of Exclusion 4) |  |  |  | 190 |
| GGUGGACAUGAGGAUCACCCAUGUGAGGAUAUCGGCUGGUACGUGUUGGCUGGCAUCUCGAGAAGGCACAUAGG [Exclusion 1 V60] (puzzle: Exclusion 1) |  |  |  | 102 |
| GUGGGUUACAUGAGGAUCACCCAUGUAUAGUGGGAAGAGAGAUAGGAUAUGAUGUGAGAAUUAUAUUAGAAGGAUCGAGACUAG [AK ExNG3-2.6] (Eterna round: R96, puzzle: Exclusion NG 3) | 632 | 351 | 236 |  |
| CCUUGUGUUGAGGAUAUGCGCCGGCUCGCUGGCGCAGAAGGCGGCACAUGAGGAUCACCCAUGUCAGUUCGCGG [salish99_ex6_r004_013] (Eterna round: R97, puzzle: Exclusion 6) | 426 | 116 |  |  |
| UUCAUGUUAGGAUAUUCCGCUGCAGAGAAAGAGUGCAGAAUGAAGAAGGGACAUGAGGAUCACCCAUGUUCCAA [EX4 A.8] (Eterna round: R97, puzzle: Exclusion 4) | 19.5 | 15.5 |  |  |
| AUCAGCUCGUGAGGAUAUAUAUAUACAUGAGGAUCACCCAUGUUAGAUCAGCUUCGGCAGUAUAUAUAGAAGGCACGAGCUGAU [ENG2/15-A2] (Eterna round: R96, puzzle: Exclusion NG 2) | 233 | 79.6 | 90.6 |  |
| AGAGACAAUCUAGGAUAUGUGUAUGAAGAGUGCGCAGAAGGAGACAUGAGGAUCACCCAUGUACAGCGACAGAAGACGACAACC [Matt's Exclusion 2] (Eterna round: R96, puzzle: Exclusion NG 1) | 14.4 | 17.5 | 36.2 |  |
| GGAAAAGCAGGAUAUACAUGAGGAUCACCCAUGUAGGCUCGCCGAGACGUGGAUGGACGUAGAAGGGCUAUUCC [Eternabot (L1) Solution 65] (Eterna round: R97, puzzle: Exclusion 3) | 121 | 28.9 |  |  |
| UAUUGCAAGUGAGGAUAUGACAUGAGGAUCACCCAUGUAAAGGGAGUUGACUAUAUAGCAAGAUAUCAGAAGGCACAACUGUAU [JR_ExcNG2_Sub004] (Eterna round: R96, puzzle: Exclusion NG 2) | 309 | 131 | 114 |  |
| CUGUGCUGACGGAGAUCCAACAUGAGGAUCACCCAUGUCUCAAAAGCUUUUUGCUCGUCUUAUCCUCCUCAGUACAC [Mat - Sensor, turn-off var - Eli Mod - D56] (Eterna round: R97, puzzle: Sensor, turn-off variant 1) | 17.7 | 17.2 |  |  |
| UCGGGCGCAGGAUAUGCCUUCCGGUACAUGAGGAUCACCCAUGUCGGGCAGUGCUGCGGAGUAGAAGGGCGUUGAG [Eternabot (L2) Solution 74] (Eterna round: R97, puzzle: Exclusion 5) | 15.8 | 16.6 |  |  |
| GCAGCAUAGUCCAAAUAGGACAUACAUGAGGAUCACCCAUGUCAGGAUAUGGUCUGGAUUACAGGCCAGAAGGGACGAAGCUGC [Eli exng3 - 005] (Eterna round: R96, puzzle: Exclusion NG 3) | 18 | 22.6 | 16.4 |  |
| CUCGUAUUAUACAUGAGGAUCACCCAUGUGGUCACCACUCACGAGGAUAUCCCGGGAAACCGAACGGAGAAGGUGUAGAGUCAU [Eternabot solution 44] (Eterna round: R96, puzzle: Exclusion NG 3) | 164 | 196 | 163 |  |
| AUUUUGUGAGGAUAUUAGAAGUAGAAAGUUGGUAGUAUUGCUGAGAAGGCACAUGAGGAUCACCCAUGUACAAC [JR_Ex4_Sub036] (Eterna round: R97, puzzle: Exclusion 4) | 17.6 | 16.7 |  |  |
| CUUUUGUGAGGAUAUGGUAACGUUUACAUGAGGAUCACCCAUGUUUCAUGGGACUUGAGACUAGAAGGCACUAACG [JR_Ex5_Sub027] (Eterna round: R97, puzzle: Exclusion 5) | 516 | 823 |  |  |
| GAAAGACAUGAGGAUCACCCAUGUCAGGAUAUGAUGCCAGCGUAGCUAGUAGGUUUUGUCAGAAGGGACGGGUU [Eternabot (L1) Solution 70] (Eterna round: R97, puzzle: Exclusion 1) | 32.2 | 27.4 |  |  |
| UCAAGUCCAUAGGAUAUCGACCAGUCCUCUGGAUGAGAAGGAUGAACUUGAGGAUCACCCAAGUGGCCGAAUAA [Aesin] (Eterna round: R97, puzzle: Exclusion 6) | 152 | 46.3 |  |  |
| AUUUAAUUUAAUAAGAUCACAUGAGGAUCACCCAUGUUAUAAUAGGAUAUCAGCUCGAAUAGAGCUGAGAAGGAUUAUAACAUG [ExNG3/9-A4] (Eterna round: R96, puzzle: Exclusion NG 3) | 17.2 | 29 | 138 |  |
| GUGAGGGAGUGAGGAUAUCAGGGAGAUAAGAAAUGAGAAGGUACAUGAGGAUCACCCAUGUAAGAGUAGGGAAGAGAGAAGAGU [Default title] (Eterna round: R96, puzzle: Exclusion NG 1) | 69.3 | 66.7 | 31.6 |  |
| UAAAAGAAAGUAAGGAUAUCUAAAUUGGAAAAGAGAGAGAAGGUACAUGAGGAUCACCCAUGUAGGGUAUCCUG [Ritien] (Eterna round: R97, puzzle: Brourd's mod of Exclusion 4) | 41.8 | 42.2 |  |  |
| GGAAGGAGAGGAUAUGAGGGAGAGAACAUGAGGAUCACCCAUGUGAGACCUCAGGAUCGAUCAGAAGGCUCAGUCC [AK-MS2ROC-r4-exclusion5-12] (Eterna round: R97, puzzle: Exclusion 5) | 692 | 232 |  |  |
| GAAAAGGCAGAGGAUAUUUCAGGUCAAAGCUGCAAAGAAGGCUGCACAUGAGGAUCACCCAUGUGGUCUUAAAA [Mod of Quesina 6 - Jieux - Exclusion 6] (Eterna round: R97, puzzle: Exclusion 6) | 150 | 22.6 |  |  |
| GUUAGACAUGAGGAUCACCCAUGUGAGGAUAUGAUGCGAUCGUGCUGACAUGAUCGCAUCAGAAGGCACAUAUG [Mat - Mod of JL D66] (puzzle: Exclusion 1) |  |  |  | 95.7 |
